From patent US20260000781A1 (CIDARA THERAPEUTICS, published 2026)

T1: human CD73 expressed on cells (human, UniProt P21589 27-549)
T1 sequence (looked up): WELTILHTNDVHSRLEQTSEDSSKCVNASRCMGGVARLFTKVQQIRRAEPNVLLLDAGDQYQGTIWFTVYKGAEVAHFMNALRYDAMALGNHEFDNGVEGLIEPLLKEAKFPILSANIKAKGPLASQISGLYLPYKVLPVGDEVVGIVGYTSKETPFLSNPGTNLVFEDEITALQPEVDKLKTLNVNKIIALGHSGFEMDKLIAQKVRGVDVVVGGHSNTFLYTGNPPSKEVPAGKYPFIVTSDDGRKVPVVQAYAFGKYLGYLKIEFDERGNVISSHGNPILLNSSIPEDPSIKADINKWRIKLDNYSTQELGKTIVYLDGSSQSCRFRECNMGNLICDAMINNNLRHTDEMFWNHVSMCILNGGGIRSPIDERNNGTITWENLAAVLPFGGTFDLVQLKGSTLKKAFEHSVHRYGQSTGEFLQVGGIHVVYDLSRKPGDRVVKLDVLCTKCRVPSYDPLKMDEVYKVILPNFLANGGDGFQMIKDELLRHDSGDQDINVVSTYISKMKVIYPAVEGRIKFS

T2: mouse CD73 expressed on cells (mouse, UniProt Q61503 29-551)
T2 sequence (looked up): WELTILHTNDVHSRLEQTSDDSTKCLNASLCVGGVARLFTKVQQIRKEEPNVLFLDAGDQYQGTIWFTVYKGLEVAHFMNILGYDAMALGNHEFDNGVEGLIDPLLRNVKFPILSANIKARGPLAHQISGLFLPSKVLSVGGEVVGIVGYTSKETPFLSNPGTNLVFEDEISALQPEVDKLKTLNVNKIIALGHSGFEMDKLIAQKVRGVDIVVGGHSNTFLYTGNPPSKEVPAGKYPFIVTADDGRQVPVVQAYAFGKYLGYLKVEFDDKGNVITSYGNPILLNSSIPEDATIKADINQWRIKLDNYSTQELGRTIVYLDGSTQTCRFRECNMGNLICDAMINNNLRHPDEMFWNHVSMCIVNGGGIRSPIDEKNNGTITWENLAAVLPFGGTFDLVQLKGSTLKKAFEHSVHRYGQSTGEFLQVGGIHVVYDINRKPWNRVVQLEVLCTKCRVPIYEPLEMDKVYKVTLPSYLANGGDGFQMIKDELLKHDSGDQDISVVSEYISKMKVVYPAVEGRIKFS

T3: Enzymatically active His-tagged human CD73/NT5E protein (human, UniProt P21589 27-547)
T3 construct: Bought protein; also called human CD73/NT5E protein, His-tag (Acro Biosystems cat CD3-H52H7); not shown: His-tag
T3 sequence (looked up): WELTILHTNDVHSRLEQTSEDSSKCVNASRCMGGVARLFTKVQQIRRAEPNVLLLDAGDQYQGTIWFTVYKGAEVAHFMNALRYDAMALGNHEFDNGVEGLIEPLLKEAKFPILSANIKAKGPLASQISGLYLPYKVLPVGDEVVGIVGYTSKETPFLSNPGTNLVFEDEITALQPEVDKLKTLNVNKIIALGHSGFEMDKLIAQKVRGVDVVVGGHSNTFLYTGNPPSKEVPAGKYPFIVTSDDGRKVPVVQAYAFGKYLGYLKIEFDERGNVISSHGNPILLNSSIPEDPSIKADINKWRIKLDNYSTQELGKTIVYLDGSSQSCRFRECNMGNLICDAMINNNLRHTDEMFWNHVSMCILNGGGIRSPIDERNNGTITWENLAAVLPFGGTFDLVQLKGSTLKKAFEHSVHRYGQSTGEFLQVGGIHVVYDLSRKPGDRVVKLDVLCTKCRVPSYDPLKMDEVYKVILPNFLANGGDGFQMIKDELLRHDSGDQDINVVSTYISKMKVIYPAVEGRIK

B1: Oleclumab (antibody, V domains shown)
VH: EVQLLESGGGLVQPGGSLRLSCAASGFTFSSYAYSWVRQAPGKGLEWVSAISGSGGRTYYADSVKGRFTISRDNSKNTLYLQMNSLRAEDTAVYYCARLGYGRVDEWGRGTLVTVSS
VL: QSVLTQPPSASGTPGQRVTISCSGSLSNIGRNPVNWYQQLPGTAPKLLIYLDNLRLSGVPDRFSGSKSGTSASLAISGLQSEDEADYYCATWDDSHPGWTFGGGTKLTVL
B2: Mupadolimab (antibody, V domains shown)
VH: QVQLVQSGAEVEKPGASVKVSCKASGYTFTSYWITWVRQAPGQGLEWMGDIYPGSGNTNYNEKFKTRVTITADKSTSTAYMELSSLRSEDTAVYYCAKEGGLTTEDYALDYWGQGTLVTVSS
VL: EIVLTQSPATLSLSPGERATLSCRASKNVSTSGYSYMHWYQQKPGQAPRLLIYLASNLESGIPPRFSGSGYGTDFTLTINNIESEDAAYYFCQHSRELPFTFGQGTKVEIK

Columns and labels:
[1] = target: T1, human CD73 expressed on cells; experiment: cell-based or functional assay
[2] = target: T1, human CD73 expressed on cells; experiment: cell-based or functional assay; remark: listed apart in the source
[3] = target: T1, human CD73 expressed on cells; experiment: cell-based or functional assay; remark: listed apart in the source
[4] = target: T1, human CD73 expressed on cells; experiment: cell-based or functional assay; remark: listed apart in the source
[5] = target: T2, mouse CD73 expressed on cells; experiment: cell-based or functional assay
[6] = target: T1, human CD73 expressed on cells; experiment: cell-based or functional assay; remark: listed apart in the source
[7] = target: T1, human CD73 expressed on cells; experiment: cell-based or functional assay; remark: listed apart in the source
[8] = target: T2, mouse CD73 expressed on cells; experiment: cell-based or functional assay; remark: listed apart in the source
[9] = target: T1, human CD73 expressed on cells; experiment: cell-based or functional assay; remark: listed apart in the source
[10] = target: T1, human CD73 expressed on cells; experiment: cell-based or functional assay; remark: listed apart in the source
[11] = target: T1, human CD73 expressed on cells; experiment: cell-based or functional assay; remark: listed apart in the source
[12] = target: T3, Enzymatically active His-tagged human …; experiment: SPR (Biacore 8K), His-tagged human CD73 captured by anti-His antibody, mAb as analyte

| Binder | cell-based CD73 enzyme inhibition IC50 (MDA-MB-231 cells) [1] | PBMC activation (CD25+), 30 µM AMP EC50 [nM] [2] | PBMC activation, CD8+CD25+ EC50 [nM] [3] | PBMC activation, CD8+granzyme B+ EC50 [nM] [3] | CD73 inhibition, human PBMCs, 3 h median IC50 [nM] [4] | CD73 inhibition, human PBMCs, 24 h median IC50 [nM] [4] | CD73 inhibition, mouse 4T1 cells, 3 h IC50 [nM] [5] | CD73 inhibition, mouse 4T1 cells, 24 h IC50 [nM] [5] | Cell internalization EC50 (nM), Fab-ZAP saporin assay, MDA-MB-231 [6] | CD73 inhibition, human PBMCs, 3 h IC50 [nM] [7] | CD73 inhibition, human PBMCs, 24 h IC50 [nM] [7] | CD73 inhibition, mouse EMT6 cells, 3 h IC50 [nM] [8] | CD73 inhibition, mouse EMT6 cells, 24 h IC50 [nM] [8] | PBMC activation, CD4+CD25+ EC50 [nM] (median, n = 3) [9] | PBMC activation, CD8+CD25+ EC50 [nM] (median, n = 3) [9] | PBMC activation, CD8+Granzyme B+ EC50 [nM] (median, n = 3) [9] | inhibition of adenosine production (AMP conversion by CellTiter-Glo), human PBMCs, EC50 [nM] [10] | Cell-based CD73 inhibition IC50 (nM), MDA-MB-231 cells [11] | Kd [12] |
| --- | --- | --- | --- | --- | --- | --- | --- | --- | --- | --- | --- | --- | --- | --- | --- | --- | --- | --- | --- |
| B1 | 0.11 nM | > 1000 nM | > 1000 nM | > 1000 nM | 7.26 nM | 89.4 nM | > 100 nM | > 100 nM | 0.02 nM | 0.56 nM | > 100 nM | 5.68 nM | > 100 nM | > 1000 nM | > 1000 nM | > 1000 nM | 288 nM | 0.67 nM | 0.527 nM |
| B2 |  |  |  |  |  |  | > 100 nM | > 100 nM |  |  |  | > 100 nM | > 100 nM |  |  |  |  |  | 123 nM |
